# Measured values as given in PMC3871807, “Analysis of rice ER-resident J-proteins reveals diversity and functional differentiation of the ER-resident Hsp70 system in plants” (Journal of Experimental Botany, 2013).
# T1: OsP58A-FLAG (rice (Oryza sativa), UniProt A0A0P0VG31 29-476)
# T1 construct: OsP58A, rice ER-resident J-protein (P58IPK type: two TPR-like regions followed by a J-domain), encoded by Os02g0195300; full-length coding region; also called Os02g0195300; source: protoplasts from rice Oc cells, transfected by electroporation, in extract; not shown: 3x FLAG, C-terminal, kept
# T1 sequence (looked up): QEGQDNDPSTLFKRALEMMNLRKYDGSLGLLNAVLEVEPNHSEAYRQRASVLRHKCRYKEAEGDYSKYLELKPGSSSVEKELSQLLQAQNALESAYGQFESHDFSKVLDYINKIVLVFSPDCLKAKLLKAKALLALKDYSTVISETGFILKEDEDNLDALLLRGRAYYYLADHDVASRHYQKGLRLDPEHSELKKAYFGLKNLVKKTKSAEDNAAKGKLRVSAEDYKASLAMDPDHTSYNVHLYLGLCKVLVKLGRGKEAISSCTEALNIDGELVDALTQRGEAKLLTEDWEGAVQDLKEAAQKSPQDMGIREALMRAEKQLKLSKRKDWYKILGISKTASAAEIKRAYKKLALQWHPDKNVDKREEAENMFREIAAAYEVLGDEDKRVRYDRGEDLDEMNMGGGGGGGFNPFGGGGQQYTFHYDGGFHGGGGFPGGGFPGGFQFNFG
# T2: OsERdj3B-FLAG (rice (Oryza sativa), UniProt B9FHF3 24-347)
# T2 construct: OsERdj3B, rice ER-resident J-protein of 347 amino acid residues (N-terminal J-domain, zinc finger motif, DnaJ C-terminal domain), encoded by Os05g0156500; full-length coding region; also called Os05g0156500; source: protoplasts from rice Oc cells, transfected by electroporation, in extract; not shown: 3x FLAG, C-terminal, kept
# T2 sequence (looked up): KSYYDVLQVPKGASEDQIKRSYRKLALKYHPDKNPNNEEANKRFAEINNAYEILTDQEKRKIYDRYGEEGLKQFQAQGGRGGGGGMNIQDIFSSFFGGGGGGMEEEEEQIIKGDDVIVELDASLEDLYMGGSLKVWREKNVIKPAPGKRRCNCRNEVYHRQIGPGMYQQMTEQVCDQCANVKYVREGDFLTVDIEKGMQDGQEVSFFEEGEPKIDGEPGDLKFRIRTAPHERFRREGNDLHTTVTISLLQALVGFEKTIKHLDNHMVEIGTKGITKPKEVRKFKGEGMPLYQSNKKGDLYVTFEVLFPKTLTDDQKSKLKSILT
# How the values were obtained:
# Test in all cases: co-IP; J-protein-3xFLAG and OsBiP-2HA-6His co-transfected into rice Oc cell protoplasts, overnight at 28 °C; extract in 50 mM TRIS-HCl pH 7.5, 150 mM NaCl, 0.5% Triton X-100; anti-FLAG M2 magnetic beads 2 h at 4 °C; washed with NET buffer (0.1% NP-40); blots with anti-FLAG-HRP and anti-HA-HRP; recovery of BiP-HA over input, relative to BiP1-HA
# Conditions in all cases: partners not purified
# OsERdj3A-FLAG = target: T3, OsERdj3A-FLAG (rice (Oryza sativa), UniProt Q10MW6 26-582)
# T3 construct: OsERdj3A, rice ER-resident J-protein (N-terminal J-domain followed by a thioredoxin-like region), encoded by Os03g0293000; also called Os03g0293000; source: protoplasts from rice Oc cells, transfected by electroporation, in extract; not shown: 3x FLAG, C-terminal, kept
# OsP58A-FLAG = target: T1, OsP58A-FLAG
# OsERdj3B-FLAG = target: T2, OsERdj3B-FLAG
# T3 sequence (Q10MW6 26-582): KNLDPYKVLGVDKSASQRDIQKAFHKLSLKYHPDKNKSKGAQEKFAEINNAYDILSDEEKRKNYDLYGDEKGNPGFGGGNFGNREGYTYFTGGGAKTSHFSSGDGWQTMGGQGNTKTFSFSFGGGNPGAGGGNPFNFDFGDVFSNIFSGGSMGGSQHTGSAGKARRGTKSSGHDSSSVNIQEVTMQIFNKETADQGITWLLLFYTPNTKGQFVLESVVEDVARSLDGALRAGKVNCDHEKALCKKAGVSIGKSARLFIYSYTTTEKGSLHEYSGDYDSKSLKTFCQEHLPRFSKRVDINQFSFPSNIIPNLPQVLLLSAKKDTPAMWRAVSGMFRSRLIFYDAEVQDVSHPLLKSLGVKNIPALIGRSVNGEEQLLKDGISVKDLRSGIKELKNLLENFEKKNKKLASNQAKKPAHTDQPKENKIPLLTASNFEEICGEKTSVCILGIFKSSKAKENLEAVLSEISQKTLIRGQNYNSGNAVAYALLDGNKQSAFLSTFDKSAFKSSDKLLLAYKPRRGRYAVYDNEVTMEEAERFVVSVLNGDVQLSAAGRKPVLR
fold higher level than OsBiP1-HA (recovery in co-IP) (OsERdj3A-FLAG) [fold],fold higher affinity than OsBiP3-HA (recovery in co-IP) (OsP58A-FLAG) [fold],fold higher affinity than OsBiP3-HA (recovery in co-IP) (OsERdj3B-FLAG) [fold],fold higher affinity than OsBiP5-HA (recovery in co-IP) (OsERdj3B-FLAG) [fold],Binder
4,–,–,–,"OsBiP5-HA (natural protein, full-length cDNA; The coding region was inserted into the Pro35S-ShΔ:2HA-6His vector; source: protoplasts from rice Oc cells, transfected by electroporation, in extract; not shown: 2x HA, C-terminal, kept; His6, C-terminal, kept) not shown"
–,4,~2,~3,"OsBiP1-HA (natural protein, full-length cDNA; The coding region was inserted into the Pro35S-ShΔ:2HA-6His vector; source: protoplasts from rice Oc cells, transfected by electroporation, in extract; not shown: 2x HA, C-terminal, kept; His6, C-terminal, kept) not shown"
